Assays:
prostate cancer cells = conditions: Beckers et al., 2007; cited from earlier work
HLA-A*0201 = HLA-A*0201 (Homo sapiens, UniProt P04439, D140Y/D185E/D98H/E176V/E277Q/G131W/G231S/I119V/I121R/I166T/I218V/L300P/L318F/N151K/N90K/P208A/P217A/Q86G/Q94H/R138H/R169H/T345S); test: UV-ligand exchange with ELISA of stabilized MHC complexes; format: binding; conditions: for Exchange yield: class symbol
Source text: Candidate peptides for the vaccines according to the present invention were further tested for immunogenicity by in vitro priming assays. The individual peptide-MHC complexes required for these assays were produced by UV-ligand exchange, where a UV-sensitive peptide is cleaved upon UV-irradiation, and exchanged with the peptide of interest as analyzed. Only peptide candidates that can effectively bind and stabilize the peptide-receptive MHC molecules prevent dissociation of the MHC complexes. To determine the yield of the exchange reaction, an ELISA was performed based on the detection of the light chain (β2m) of stabilized MHC complexes. The assay was performed as generally described in Rodenko et al. (Rodenko B, Toebes M, Hadrup S R, van Esch W J, Molenaar A M, Schumacher T N, Ovaa H. Generation of peptide-MHC class I complexes through UV-mediated ligand exchange. Nat Protoc. 2006; 1(3):1120-32.).
96 well MAXISorp plates (NUNC) were coated over night with 2 ug/ml streptavidin in PBS at room temperature, washed 4× and blocked for 30 min at 37° C. in 2% BSA containing blocking buffer. Refolded HLA-A*0201/MLA-001 monomers served as standards, covering the range of 8-500 ng/ml. Peptide-MHC monomers of the UV-exchange reaction were diluted 100 fold in blocking buffer. Samples were incubated for 1 h at 37° C., washed four times, incubated with 2 ug/ml HRP conjugated anti-β2m for 1 h at 37° C., washed again and detected with TMB solution that is stopped with […]. Absorption was measured at 450 nm.

HLA-DR haplotypes [1] = test: Stability of the formed HLA-peptide complexes (REVEAL assay, 24 h at 37° C.); format: binding, human; conditions: after 24 h at 37° C.; of 6 investigated HLA-peptide complexes
Procedure: Besides the affinity of a peptide to a particular HLA molecule, the enduring stability of the formed HLA-peptide complex is crucial for the occurrence of an immune response. Accordingly presence of the formed HLA-peptide complex is measured after its incubation for 24 h at 37° C. Consequently the stability of the formed MHC-peptide complex is calculated as a ration of the binding scores at 24 h and the binding scores which are received right after the refolding (accordingly at time 0) in percent.

HLA-DR haplotypes [2] = test: ProImmune REVEAL MHC-peptide binding assay, all investigated haplotypes; set-up: species or system human; conditions: of 7 investigated HLA haplotypes
Source text: The 7 investigated HLA-DR haplotypes are selected according to their frequencies in HLA-A*02 and HLA-A*24 positive North Americans population (Table 7.1 and 7.2)
(§1) The ProImmune REVEAL® MHC-peptide binding assay determines the ability of each candidate peptide to bind to the selected HLA class II haplotype and stabilize the HLA-peptide complex. Thereby the candidate peptides are assembled in vitro with a particular HLA class II protein. The level of peptide incorporation into HLA molecules is measured by presence or absence of the native conformation of the assembled HLA-peptide complex at time 0 after completed refolding procedure (so called on-rate).
(§2) The binding capacity of candidate peptide to a particular HLA molecule is compared to the one with known very strong binding properties (positive control) resulting in the corresponding REVEAL® […] binding score. The positive control peptide is selected and provided by ProImmune based on their experience individually for each HLA haplotype.

HLA-DR3 = test: ProImmune REVEAL MHC-peptide binding assay; set-up: species or system human
Procedure: as §1, §2

HLA-DR7 = test: ProImmune REVEAL MHC-peptide binding assay; set-up: species or system human; conditions: compared to the positive control peptide, time 0
Procedure: as §1, §2

HLA-DR5 = test: ProImmune REVEAL MHC-peptide binding assay; set-up: species or system human; conditions: compared to the positive control peptide, time 0
Procedure: as §1, §2

HLA-DR4 = test: ProImmune REVEAL MHC-peptide binding assay; set-up: species or system human; conditions: compared to the positive control peptide, time 0
Procedure: as §1, §2

HLA-DR1 = test: ProImmune REVEAL MHC-peptide binding assay; set-up: species or system human; conditions: compared to the positive control peptide, time 0
Procedure: as §1, §2

HLA-DR6 = test: ProImmune REVEAL MHC-peptide binding assay; set-up: species or system human
Procedure: as §1, §2

HLA-DR2 = target: T1, HLA-DR2 (Homo sapiens, UniProt P01903+P01911); test: ProImmune REVEAL MHC-peptide binding assay; conditions: compared to the positive control peptide, time 0
T1 construct: purchased ProImmune
Procedure: as §1, §2

T1 sequence (P01903 26-254): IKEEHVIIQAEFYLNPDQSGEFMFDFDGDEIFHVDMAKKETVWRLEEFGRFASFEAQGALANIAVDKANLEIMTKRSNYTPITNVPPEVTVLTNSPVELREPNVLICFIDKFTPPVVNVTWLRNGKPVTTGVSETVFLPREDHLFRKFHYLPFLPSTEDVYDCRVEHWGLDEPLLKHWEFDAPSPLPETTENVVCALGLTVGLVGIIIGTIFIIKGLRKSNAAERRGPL
T1 sequence (P01911 30-227 limits assumed): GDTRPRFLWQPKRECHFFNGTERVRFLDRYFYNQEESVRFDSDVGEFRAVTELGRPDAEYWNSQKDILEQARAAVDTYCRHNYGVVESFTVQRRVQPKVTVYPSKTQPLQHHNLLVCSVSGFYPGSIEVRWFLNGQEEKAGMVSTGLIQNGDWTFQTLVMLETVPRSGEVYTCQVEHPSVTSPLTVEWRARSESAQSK

Compound	Exchange yield (HLA-A*0201)	other results
CO[C@H]1CCCC[C@@H](c2ccccc2)OC(=O)[C@@H](C)[C@@]2(O)O[C@H]([C@@H](C)[C@H](O)[C@H]2OC)[C@@H](C)/C=C/[C@H]1OC [soraphen A]		fatty acid oxidation (prostate cancer cells): enhances fatty acid oxidation; lipogenesis (prostate cancer cells): blocks lipogenesis
ALLRTVVSV (listed as Homo sapiens) [SEQ ID NO 33]	++++ (>70 = ++++)	
SILTIEDGIFEV (listed as Homo sapiens) [SEQ ID NO 41]	++ (20%-49% = ++)	
SLLAQNTSWLL (listed as Homo sapiens) [SEQ ID NO 74]	+++ (50%-70%, +++)	
SLLPVDIRQYL (listed as Homo sapiens) [SEQ ID NO 50]	+++ (50%-70%, +++)	
TVAEVIQS V (TVAEVIQSV; listed as Homo sapiens) [SEQ ID NO 27]	+++ (50%-70%, +++)	
SLYKGLLSV (listed as Homo sapiens) [SEQ ID NO 56]	++ (20%-49% = ++)	
SLAPAGVIRV (listed as Homo sapiens) [SEQ ID NO 79]	+++ (50%-70%, +++)	
INNYTPDMNREDVDYAIR (listed as Homo sapiens) [SEQ ID NO 76]		HLA-peptide complexes stable (HLA-DR haplotypes [1]): 2; HLA haplotypes with which a complex is formed (HLA-DR haplotypes [2]): 4; binding to HLA-DR3 (HLA-DR3): did not bind; Relative Binding Score HLA-DR7 (HLA-DR7): 0; Relative Binding Score HLA-DR5 (HLA-DR5): 0.04; Relative Binding Score HLA-DR4 (HLA-DR4): 0.74; Relative Binding Score HLA-DR1 (HLA-DR1): 0.04; binding to HLA-DR6 (HLA-DR6): did not bind; Relative Binding Score HLA-DR2 (HLA-DR2): 2.43
TLWYRAPEV (listed as Homo sapiens) [SEQ ID NO 7]	++ (20%-49% = ++)	
KIQEILTQV (listed as Homo sapiens) [SEQ ID NO 66]	++ (20%-49% = ++)	
ALVDHTPYL (listed as Homo sapiens) [SEQ ID NO 20]	++ (20%-49% = ++)	
SLWGGDVVL (listed as Homo sapiens) [SEQ ID NO 42]	+++ (50%-70%, +++)	
TLSSIKVEV (listed as Homo sapiens) [SEQ ID NO 5]	+++ (50%-70%, +++)	
RVLPPSALQSV (listed as Homo sapiens) [SEQ ID NO 87]	+++ (50%-70%, +++)	
TNGVIHVVDKLLYPADT (listed as Homo sapiens) [SEQ ID NO 77]		HLA-peptide complexes stable (HLA-DR haplotypes [1]): 3; HLA haplotypes with which a complex is formed (HLA-DR haplotypes [2]): 5; binding to HLA-DR3 (HLA-DR3): did not bind; Relative Binding Score HLA-DR7 (HLA-DR7): 0.47; Relative Binding Score HLA-DR5 (HLA-DR5): 0.08; Relative Binding Score HLA-DR4 (HLA-DR4): 0.02; Relative Binding Score HLA-DR1 (HLA-DR1): 0.24; binding to HLA-DR6 (HLA-DR6): did not bind; Relative Binding Score HLA-DR2 (HLA-DR2): 0.68
FLVDGSWSV (listed as Homo sapiens) [SEQ ID NO 24]	+++ (50%-70%, +++)	
TLISRLPAV (listed as Homo sapiens) [SEQ ID NO 61]	++++ (>70 = ++++)	
KVLEILHRV (listed as Homo sapiens) [SEQ ID NO 65]	+++ (50%-70%, +++)	
SLYDNQITTV (listed as Homo sapiens) [SEQ ID NO 78]	++ (20%-49% = ++)	
VLLPVEVATHYL (listed as Homo sapiens) [SEQ ID NO 11]	+++ (50%-70%, +++)	
KLSWDLIYL (listed as Homo sapiens) [SEQ ID NO 32]	+++ (50%-70%, +++)	
FLHHLEIEL (listed as Homo sapiens) [SEQ ID NO 23]	+++ (50%-70%, +++)	
SLFGNSGILENV (listed as Homo sapiens) [SEQ ID NO 80]	+++ (50%-70%, +++)	
SLVAVELEKV (listed as Homo sapiens) [SEQ ID NO 90]	+++ (50%-70%, +++)	
VVDKTLLLV (listed as Homo sapiens) [SEQ ID NO 60]	++ (20%-49% = ++)	
SLAGDVALQQL (listed as Homo sapiens) [SEQ ID NO 63]	++++ (>70 = ++++)	

Compound	Exchange yield (HLA-A*0201)	other results
ILFPDIIARA (listed as Homo sapiens) [SEQ ID NO 62]	++++ (>70 = ++++)	
GLAEDIDKGEV (listed as Homo sapiens) [SEQ ID NO 57]	++ (20%-49% = ++)	
AMLAVLHTV (listed as Homo sapiens) [SEQ ID NO 64]	++ (20%-49% = ++)	
GLIEIISNA (listed as Homo sapiens) [SEQ ID NO 48]	+++ (50%-70%, +++)	
RLLDSVSRL (listed as Homo sapiens) [SEQ ID NO 39]	+++ (50%-70%, +++)	
AMATESILHFA (listed as Homo sapiens) [SEQ ID NO 86]	+++ (50%-70%, +++)	
ALFPHLLQPV (listed as Homo sapiens) [SEQ ID NO 43]	+++ (50%-70%, +++)	
ILFEINPKL (listed as Homo sapiens) [SEQ ID NO 1]	++++ (>70 = ++++)	
VLSVVEVTL (listed as Homo sapiens) [SEQ ID NO 10]	++++ (>70 = ++++)	
KILEDVVGV (listed as Homo sapiens) [SEQ ID NO 70]	+++ (50%-70%, +++)	
ALWEKNTHL (listed as Homo sapiens) [SEQ ID NO 82]	+++ (50%-70%, +++)	
ALYGRLEVV (listed as Homo sapiens) [SEQ ID NO 81]	++++ (>70 = ++++)	
ALASVIKEL (listed as Homo sapiens) [SEQ ID NO 89]	+++ (50%-70%, +++)	
ILQDRLNQV (listed as Homo sapiens) [SEQ ID NO 67]	++ (20%-49% = ++)	
RLLGPSAAADILQL (listed as Homo sapiens) [SEQ ID NO 17]	++ (20%-49% = ++)	
AMSSKFFLV (listed as Homo sapiens) [SEQ ID NO 69]	++ (20%-49% = ++)	
FLLDGSANV (listed as Homo sapiens) [SEQ ID NO 73]	++++ (>70 = ++++)	
SLIDADPYL (listed as Homo sapiens) [SEQ ID NO 58]	+++ (50%-70%, +++)	
KLDETNNTL (listed as Homo sapiens) [SEQ ID NO 6]	+++ (50%-70%, +++)	
RLLJAAENFL (RLLAAENFL; listed as Homo sapiens) [SEQ ID NO 49]	++ (20%-49% = ++)	Average exchange yield in % (HLA-A*0201; ELISA detecting β2m of stabilized MHC complexes): 47%
YLPHAPPFA (listed as Homo sapiens) [SEQ ID NO 53]	+++ (50%-70%, +++)	
KIVDFSYSV (listed as Homo sapiens) [SEQ ID NO 85]	+++ (50%-70%, +++)	
FQYDHEAFL (listed as Homo sapiens) [SEQ ID NO 14]	++++ (>70 = ++++)	
AIDGNNHEV (listed as Homo sapiens) [SEQ ID NO 31]	++ (20%-49% = ++)	
YVYQNNIYL (listed as Homo sapiens) [SEQ ID NO 68]	++ (20%-49% = ++)	
KLLTEVHAA (listed as Homo sapiens) [SEQ ID NO 72]	+++ (50%-70%, +++)	

— US10487116B2, “Immunotherapy against several tumors, such as lung cancer, including NSCLC” (IMMATICS BIOTECHNOLOGIES GMBH, priority 2013, dated 2019)
